Where a SMILES comes first, the peptide text is derived from it. [ ]: non-standard residue; d: D form. Aib = CC(C)(N)C(=O)O
What was measured:
GCGR [1] = biological target: T1, GCGR (Homo sapiens, UniProt P47871); experiment: NanoBiT mini-Gs recruitment to GCGR-SmBiT in HEK293T cells; format: cell-based; set-up: expressed in transfected cells; host or cells: HEK293T
GCGR [2] = biological target: T1, GCGR; experiment: NanoBiT β-arrestin-2 recruitment to GCGR-SmBiT in HEK293T cells; format: cell-based; set-up: expressed in transfected cells; host or cells: HEK293T
[3] = biological target: GCGR-SmBiT (glucagon receptor) (UniProt P47871)
[4] = biological target: GLP-1R-SmBiT (glucagon-like peptide-1 receptor) (UniProt P43220)
Huh7-GCGR cells = experiment: Fluorescent TMR-ligand internalisation in Huh7-GCGR cells (high content imaging); format: cell-based, human; conditions: 100 nM, 30 min, n = 4
Description: Huh7-GCGR cells were seeded in black clear-bottom plates coated with 0.1% poly-D-lysine and assayed 24 h later. Then 100 nM of fluorescent TMR-conjugated agonist or vehicle was applied for 30 min. The cells were then washed with cold HBSS and incubated for 5 min in cold acetic acid +150 mM of NaCl buffer at a pH of 2.9 to strip surface ligands. After a final wash, the cells were resuspended in HBSS and the fluorescent ligand uptake was measured and quantified by high content imaging as described in Section 2.9.

mouse pancreatic islets = experiment: Fluorescent TMR-ligand uptake in mouse pancreatic islets; format: cell-based; conditions: 100 nM, 30 min, confocal imaging, n = 2
Description: Mouse pancreatic islets were isolated and left to recover overnight before being immobilised with Matrigel onto glass-bottom Mattek dishes and stimulated with 100 nM of the indicated TMR-modified agonist for 30 min. Z stacks were recorded for the whole islet volume on a Zeiss LSM780 inverted confocal microscope with a 20× air objective and 1 μm of separation between optical slices.

[5] = biological target: GCGR-SmBiT (glucagon receptor) (UniProt P47871); experiment: split reporter (BiFC, NanoBiT); HEK293T cells co-transfected with receptor-SmBiT and LgBiT-mini-G or LgBiT-β-arrestin-2; in HBSS with furimazine, 37 °C; 5 min baseline, then peptide agonist added and luminescence recorded for 30 min; K@[max] from one-phase (mini-Gs) or bi-exponential (β-arrestin-2) fits at a single maximal agonist concentration
[6] = biological target: GLP-1R-SmBiT (glucagon-like peptide-1 receptor) (UniProt P43220); experiment: as above

Chain of GCG-H3 (peptide) (peptide): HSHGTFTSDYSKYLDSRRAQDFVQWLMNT
Chain of GCGR-SmBiT (glucagon receptor) (P47871 26-477): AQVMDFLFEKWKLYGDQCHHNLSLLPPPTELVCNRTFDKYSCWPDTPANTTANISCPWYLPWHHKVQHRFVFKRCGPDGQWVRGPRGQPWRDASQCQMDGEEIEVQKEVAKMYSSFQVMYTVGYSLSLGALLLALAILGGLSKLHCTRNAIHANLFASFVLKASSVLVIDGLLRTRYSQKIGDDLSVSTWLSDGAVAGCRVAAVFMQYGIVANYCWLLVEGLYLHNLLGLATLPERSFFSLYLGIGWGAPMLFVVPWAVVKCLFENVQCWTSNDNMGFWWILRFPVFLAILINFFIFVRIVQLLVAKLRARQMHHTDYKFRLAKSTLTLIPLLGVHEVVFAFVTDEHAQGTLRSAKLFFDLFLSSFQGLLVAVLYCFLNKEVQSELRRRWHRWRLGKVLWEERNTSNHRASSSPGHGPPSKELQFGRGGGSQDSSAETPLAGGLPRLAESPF
T1 sequence (P47871 26-477): as above
Chain of GLP-1R-SmBiT (glucagon-like peptide-1 receptor) (P43220 24-463): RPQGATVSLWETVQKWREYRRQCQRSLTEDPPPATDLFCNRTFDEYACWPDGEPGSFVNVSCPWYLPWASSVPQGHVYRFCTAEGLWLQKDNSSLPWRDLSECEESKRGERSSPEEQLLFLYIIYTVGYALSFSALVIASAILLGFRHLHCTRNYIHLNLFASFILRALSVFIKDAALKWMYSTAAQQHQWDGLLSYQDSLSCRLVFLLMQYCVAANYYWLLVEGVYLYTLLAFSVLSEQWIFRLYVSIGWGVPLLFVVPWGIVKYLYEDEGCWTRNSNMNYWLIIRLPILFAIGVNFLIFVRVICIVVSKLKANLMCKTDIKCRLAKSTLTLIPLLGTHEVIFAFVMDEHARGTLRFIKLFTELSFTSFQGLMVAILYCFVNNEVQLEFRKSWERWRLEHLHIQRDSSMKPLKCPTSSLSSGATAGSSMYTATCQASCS

Q: What does the source list for CSCC[C@H](NC(=O)[C@H](CC(C)C)NC(=O)[C@H](Cc1c[nH]c2ccccc12)NC(=O)[C@H](CCC(N)=O)NC(=O)[C@@H](NC(=O)[C@H](Cc1ccccc1)NC(=O)[C@H](CC(=O)O)NC(=O)[C@H](CCC(N)=O)NC(=O)[C@H](C)NC(=O)[C@H](CCCNC(=N)N)NC(=O)[C@H](CCCNC(=N)N)NC(=O)[C@H](CO)NC(=O)[C@H](CC(=O)O)NC(=O)[C@H](CC(C)C)NC(=O)[C@H](Cc1ccc(O)cc1)NC(=O)[C@H](CCCCN)NC(=O)[C@H](CO)NC(=O)[C@H](Cc1ccc(O)cc1)NC(=O)[C@H](CC(=O)O)NC(=O)[C@H](CO)NC(=O)[C@@H](NC(=O)[C@H](Cc1ccccc1)NC(=O)[C@@H](NC(=O)CNC(=O)[C@H](Cc1c[nH]cn1)NC(=O)C(C)(C)NC(=O)[C@@H](N)Cc1c[nH]cn1)[C@@H](C)O)[C@@H](C)O)C(C)C)C(=O)N[C@@H](CC(N)=O)C(=O)N[C@H](C(=O)O)[C@@H](C)O [GCG-AIB2H3] (H-H[Aib]HGTFTSDYSKYLDSRRAQDFVQWLMNT-OH)?
A: Emax (GCGR [1]; HEK-293T, read-out: GCGR Mini-Gs Emax): 74 ± 5%; EC50 (GCGR [1]; read-out: GCGR Mini-Gs pEC50 (converted)): 100 nM; Emax (GCGR [2]; HEK-293T, read-out: GCGR β-arrestin-2 Emax): 53 ± 2%; EC50 (GCGR [2]; read-out: GCGR β-arrestin-2 pEC50 (converted)): 251 nM

Q: Which results are given for GCG-AIB2H3 (peptide)?
A: Emax of mini-Gs recruitment to GCGR-SmBiT (NanoBiT, HEK293T, AUC over 30 min) [3]: 74 % max; Emax of β-arrestin-2 recruitment to GCGR-SmBiT (NanoBiT, HEK293T, AUC over 30 min) [3]: 53 % max; pEC50 of mini-Gs recruitment to GCGR-SmBiT (NanoBiT, HEK293T, AUC over 30 min) [3]: 7 pEC50 (M); pEC50 of β-arrestin-2 recruitment to GCGR-SmBiT (NanoBiT, HEK293T, AUC over 30 min) [3]: 6.6 pEC50 (M)

Q: With GCG-H3 (peptide) as the molecule, how does the Emax of mini-Gs recruitment to GCGR-SmBiT (NanoBiT, HEK293T, AUC over 30 min) [3] read?
A: Its Emax of mini-Gs recruitment to GCGR-SmBiT (NanoBiT, HEK293T, AUC over 30 min) is 66 % max.

Q: And the Emax of β-arrestin-2 recruitment to GCGR-SmBiT (NanoBiT, HEK293T, AUC over 30 min) [3]?
A: The Emax of β-arrestin-2 recruitment to GCGR-SmBiT (NanoBiT, HEK293T, AUC over 30 min) was 54 % max.

Q: What about the pEC50 of mini-Gs recruitment to GCGR-SmBiT (NanoBiT, HEK293T, AUC over 30 min) [3] of the same molecule?
A: The pEC50 of mini-Gs recruitment to GCGR-SmBiT (NanoBiT, HEK293T, AUC over 30 min) was 6.8 pEC50 (M).

Q: And the pEC50 of β-arrestin-2 recruitment to GCGR-SmBiT (NanoBiT, HEK293T, AUC over 30 min) [3]?
A: Its pEC50 of β-arrestin-2 recruitment to GCGR-SmBiT (NanoBiT, HEK293T, AUC over 30 min) is 6.3 pEC50 (M).

Q: With GLP-1-AIB2 (peptide) as the molecule, how does the Emax of mini-Gs recruitment to GLP-1R-SmBiT (NanoBiT, HEK293T, AUC over 30 min) [4] read?
A: The Emax of mini-Gs recruitment to GLP-1R-SmBiT (NanoBiT, HEK293T, AUC over 30 min) was 96 % max.

Q: And the Emax of β-arrestin-2 recruitment to GLP-1R-SmBiT (NanoBiT, HEK293T, AUC over 30 min) [4]?
A: Its Emax of β-arrestin-2 recruitment to GLP-1R-SmBiT (NanoBiT, HEK293T, AUC over 30 min) is 68 % max.

Q: What about the pEC50 of mini-Gs recruitment to GLP-1R-SmBiT (NanoBiT, HEK293T, AUC over 30 min) [4] of the same molecule?
A: Its pEC50 of mini-Gs recruitment to GLP-1R-SmBiT (NanoBiT, HEK293T, AUC over 30 min) is 7.9 pEC50 (M).

Q: What about the pEC50 of β-arrestin-2 recruitment to GLP-1R-SmBiT (NanoBiT, HEK293T, AUC over 30 min) [4] of the same molecule?
A: The pEC50 of β-arrestin-2 recruitment to GLP-1R-SmBiT (NanoBiT, HEK293T, AUC over 30 min) was 7.7 pEC50 (M).

Q: With Glucagon-AIB2 (GCG-AIB2) (peptide) as the molecule, how does the Emax of mini-Gs recruitment to GCGR-SmBiT (NanoBiT, HEK293T, AUC over 30 min) [3] read?
A: Its Emax of mini-Gs recruitment to GCGR-SmBiT (NanoBiT, HEK293T, AUC over 30 min) is 54 % max.

Q: What about the Emax of β-arrestin-2 recruitment to GCGR-SmBiT (NanoBiT, HEK293T, AUC over 30 min) [3] of the same molecule?
A: The Emax of β-arrestin-2 recruitment to GCGR-SmBiT (NanoBiT, HEK293T, AUC over 30 min) was 25 % max.

Q: What about the pEC50 of mini-Gs recruitment to GCGR-SmBiT (NanoBiT, HEK293T, AUC over 30 min) [3] of the same molecule?
A: Its pEC50 of mini-Gs recruitment to GCGR-SmBiT (NanoBiT, HEK293T, AUC over 30 min) is 6.7 pEC50 (M).

Q: What about the pEC50 of β-arrestin-2 recruitment to GCGR-SmBiT (NanoBiT, HEK293T, AUC over 30 min) [3] of the same molecule?
A: Its pEC50 of β-arrestin-2 recruitment to GCGR-SmBiT (NanoBiT, HEK293T, AUC over 30 min) is 6.2 pEC50 (M).

Q: With “HXHGTFTSDYSKYLDAKRAQEFIEWLLAGHHHHHPS(K-TMR)W [SRB103H-TMR, SRB103H analogue conjugated to tetramethylrhodamine (TMR) close to the C-terminus]” as the molecule, how does the “TMR-ligand uptake in Huh7-GCGR cells” value (Huh7-GCGR cells) read?
A: Its value is “greater uptake”.

Q: For “HXQGTFTSDYSKYLDAKRAQEFIEWLLAGHHHHHPS(K-TMR)W [SRB103Q-TMR, SRB103Q analogue conjugated to tetramethylrhodamine (TMR) close to the C-terminus]”, which “TMR agonist uptake in mouse islets” value (mouse pancreatic islets) is on record?
A: Its value is “somewhat reduced compared to SRB103H-TMR”.

Q: What does the source list for LgBiT-mini-Gs (domain or fragment)?
A: K@[max] with GCG (association rate constant at maximal agonist stimulation) [5]: 0.17 min⁻¹; K@[max] with GCG-AIB2 (association rate constant at maximal agonist stimulation) [5]: 0.11 min⁻¹; K@[max] with GCG-AIB2H3 (association rate constant at maximal agonist stimulation) [5]: 0.13 min⁻¹; K@[max] with GCG-H3 (association rate constant at maximal agonist stimulation) [5]: 0.13 min⁻¹; K@[max] with SRB103H (association rate constant at maximal agonist stimulation) [5]: 0.14 min⁻¹; K@[max] with SRB103Q (association rate constant at maximal agonist stimulation) [5]: 0.13 min⁻¹; K@[max] with GLP-1-AIB2 (association rate constant at maximal agonist stimulation) [6]: 0.21 min⁻¹; K@[max] with SRB103H (association rate constant at maximal agonist stimulation) [6]: 0.93 min⁻¹; K@[max] with SRB103Q (association rate constant at maximal agonist stimulation) [6]: 0.7 min⁻¹

Reference: paper PMC8163982, “Partial agonism improves the anti-hyperglycaemic efficacy of an oxyntomodulin-derived GLP-1R/GCGR co-agonist” (Molecular Metabolism, 2021)
